Measured values published in publication PMC4674680, “An in cellulo-derived structure of PAK4 in complex with its inhibitor Inka1” (Nature Communications, 2015).

Tests used:
PAK4 = assay: Co-immunoprecipitation of HA-Inka1 by FLAG-tagged PAK4 constructs; assay type: binding, human; conditions: Fig. 1b; mammalian cells; PAK4* = RR48/49AE
Procedure: Transfection of cell culture and immunoprecipitation
Monkey COS-7 cells, human HEK293 and U2OS were grown in DMEM medium with 4,500 mg l^−1 glucose supplemented with 10% bovine calf serum (Hyclone). HeLa cells were grown in Eagle's MEM medium supplemented with L-glutamine, sodium bicarbonate, sodium pyruvate and 10% bovine calf serum. Transient transfections were performed with Lipofectamine 2000 according to recommended protocols. Typically, a total of 5 μg plasmid DNA was used per 60-mm dish; lysates were harvested 18 h later in ice-cold lysis buffer (0.5 ml; 25 mM HEPES, pH 7.3, 100 mM KCl, 5 mM MgCl2, 20 mM β-glycerophosphate, 5% glycerol, 0.5% Triton X-100, 5 mM dithiothreitol, 0.5 mM phenylmethyl sulfonyl fluoride, 1 mM Na3VO4 and 1 × protease inhibitor cocktail (Roche)). To test co-immunoprecipitation of proteins, the lysates were clarified by centrifugation (14,000g) and the clarified lysates were incubated while rolling (2 h) with 20 μl M2 anti-Flag Sepharose (Sigma-Aldrich, A2220). Rabbit anti-Flag (Sigma-Aldrich, F7425) or horseradish peroxidase-coupled anti-HA (Santa Cruz Biotechnology, sc-7392 HRP, 1 μg ml^−1) were used for western blot analysis.

PAK4cat = biological target: T1, PAK4cat (Homo sapiens, UniProt O96013); assay: In-vitro kinase assay, PAK4cat (phosphorylation of GST-Raf13); assay type: biochemical; conditions: in vitro
T1 construct: PAK1 (1–545) and PAK4 (286–591), respectively; 6His (N); made in house; host or cells: Escherichia coli BL21-CodonPlus(DE3)
T1 sequence (O96013 286-591): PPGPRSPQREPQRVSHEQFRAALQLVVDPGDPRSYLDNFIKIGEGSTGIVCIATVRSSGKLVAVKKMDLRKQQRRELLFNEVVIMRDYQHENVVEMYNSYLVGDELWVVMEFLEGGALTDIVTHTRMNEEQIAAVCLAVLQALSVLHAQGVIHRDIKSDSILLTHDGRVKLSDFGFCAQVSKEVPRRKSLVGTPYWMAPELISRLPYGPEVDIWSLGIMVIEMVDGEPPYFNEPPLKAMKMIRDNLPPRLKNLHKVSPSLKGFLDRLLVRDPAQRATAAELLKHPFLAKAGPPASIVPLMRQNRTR
Procedure: Purified PAK1 or PAK4 (50 nM in 25–50 μl) were incubated with 10 μM GST-Raf1S338 peptide in 10 μM ATP (2 μCi of γ32P ATP) of kinase buffer (25 mM HEPES, pH 7.3, 0.1% Triton X-100, 50 mM KCl, 10 mM MgCl2, 1 mM dithiothreitol) at 30 °C for 20 min. Samples were analysed by SDS–PAGE or adsorption of the GST substrate mix onto polyvinylidene difluoride membranes, followed by extensive washing to remove free γ32P-ATP. The synthetic peptides of 95% purity, as determined by HPLC and mass spectrometric analyses (GenScript), were soluble in aqueous PBS. Stock solutions (10 mM) were quantified via calculated extinction coefficients and absorbance measurements at 280 nm and stored at −80 °C. The diluted peptides were incubated at the indicated concentrations with the kinase on ice (10 min) before addition of γ32P ATP and subsequent incubation at 30 °C. The synthetic peptide array (Jerini Biotools) was phosphorylated in situ as described previously.

B1: Inka1: endogenous PAK4 inhibitor, 30-kDa neural crest enriched protein (protein, UniProt Q96EL1 1-287, looked up)
PAK4-inhibitor INKA1: MDMHSARLDSFLSQLRWELLCGRDTGSPSMPGPLQPTSQTGPDVQPSHQLRASGALEEDSVCCVEEEEEEEEEAVVTEDRDAALGGPREHALDWDSGFSEVSGSTWREEELPVSQRPAPSAQPLRRQCLSVSGLPMPSRAPVASVPPVHHPRPKSTPDACLEHWQGLEAEDWTAALLNRGRSRQPLVLGDNCFADLVHNWMELPETGSEGGDGGGHRARARPPQFLLGLSEQLRRRLARARRTAMAGKRLSCPPRPEPELPADVSRFAALMSCRSRQPIICNDVSYL
PAK4
  Binding to activated PAK4* (mutated AID) versus wild-type PAK4, in words: significantly better than wild-type PAK4
PAK4cat
  Affinity relative to AID or iBox-C, in words: much higher affinity than the corresponding AID
